# Laboratory results as given in patent publication EP2045266A1, “Methods for treating and diagnosing a cancer secreting cath-D or Alzheimer's disease” (priority 2007, dated 2009).
# Molecular target: M6P receptors
# Experiment: cell-based or functional assay
# Chain of pro-cath-D (52 kDa precursor of human cathepsin D), P07339 21-412 (enzyme) (P07339 21-412 limits assumed): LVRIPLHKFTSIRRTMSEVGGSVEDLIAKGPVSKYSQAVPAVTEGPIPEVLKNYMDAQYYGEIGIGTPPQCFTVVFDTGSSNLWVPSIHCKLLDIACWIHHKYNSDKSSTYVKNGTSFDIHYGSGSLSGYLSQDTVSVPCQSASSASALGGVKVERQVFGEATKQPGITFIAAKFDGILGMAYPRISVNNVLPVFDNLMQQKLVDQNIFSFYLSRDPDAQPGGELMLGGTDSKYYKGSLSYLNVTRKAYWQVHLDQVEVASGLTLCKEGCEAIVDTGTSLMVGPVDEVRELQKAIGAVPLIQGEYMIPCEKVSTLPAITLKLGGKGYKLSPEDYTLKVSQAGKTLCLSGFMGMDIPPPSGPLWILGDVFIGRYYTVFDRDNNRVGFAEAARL
substance,measurement,value
"pro-cath-D (52 kDa precursor of human cathepsin D), P07339 21-412 (enzyme)",decrease in internalization of labelled pro-cath-D by HMF fibroblasts over 3 h with excess soluble M6P (10 mM),82%
